Here are results for one molecule from patent US20030003502A1 (published 2003).

The assay concerns the target T1, PhFc-Cε3/Cε41-222 (human, UniProt P01854 211-427, N-linked carbohydrate attached at N394 (NAG/MAN residues 694-699 in Table 1)).
T1 construct: Fc fragment of human IgE (Cε3 and Cε4 domains); It is a dimer of two identical chains with an interchain disulfide near residue 329; Produced in Trichoplusia ni (Hi-5) insect cells; also called human IgE-Fc Cε3/Cε4 domains; IgE-Fc
Description: complex formation and co-crystallization, crystal form I. The procedure:
The structure was determined by molecular replacement techniques as described in Methods. Manual model building was done with the program O¹⁸ and refinement carried out with CNS¹⁹. Current refinement statistics for the complex are shown in Table 3, with an overall R-free of 29.3% and R-cryst of 27.0% to 3.25 Å.
Human IgE-Fc Cε3/Cε4 domains and a carbohydrate mutant of the FcεRIα¹¹ were expressed in insect cells essentially as described for IgE-Fc Cε3/Cε4 in 60/189,403. Complexes of wt-Fc-Cε3/Cε4 and wt-FcεRIα produced only poorly diffracting crystals. Since the receptor is heavily glycosylated (˜33% carbohydrate by weight), and the carbohydrate sites are dispersed on the receptor surface, a subset of these attachment sites was removed to improve the protein crystallization. A previously-described carbohydrate mutant of the receptor¹⁷ lacking three of the seven wild type carbohydrate sites (residues 74, 135, and 140) located on both D1 and D2 in the receptor structure. The triple receptor mutant, FcεRIαΔ4-6 was subcloned into the pvl1392 baculovirus transfer vector and recombinant virus produced. The mutant receptor was active, expressed well and was purified by affinity chromatography similarly to the wt protein. […]

T1 sequence (P01854 other isoform, or with tags, fused parts or gaps limits assumed): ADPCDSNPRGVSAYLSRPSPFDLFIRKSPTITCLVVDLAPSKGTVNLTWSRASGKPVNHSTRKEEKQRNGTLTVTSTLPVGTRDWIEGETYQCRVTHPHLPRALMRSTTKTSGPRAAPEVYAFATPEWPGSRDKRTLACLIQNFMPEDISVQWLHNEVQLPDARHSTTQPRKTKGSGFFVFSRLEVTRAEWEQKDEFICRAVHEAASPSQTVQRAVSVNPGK

B1: PhFcεRIα1-176 (receptor)
chain: VPQKPKVSLNPPWNRIFKGENVTLTCNGNNFFEVSSTKWFHNGSLSEETNSSLNIVNAKFEDSGEYKCQHQQVNESEPVYLEVFSDWLLLQASAEVVMEGQPLFLRCHGWRNWDVYKVIYYKDGEALKYWYENHNISITNATVEDSGTYYCTGKVWQLDYESEPLNITVIKAPREK
modifications: N-linked carbohydrate (seven native attachment sites; about 33% carbohydrate by weight)
notes: also called hFcεRIα1-176 protein; wild type (wt) FcεRIα
With B1, the binding result is “binds”.
